The subject of this series is CHO-K1 cells. As to the kind of experiment: Comparison of expression between nanoKAZ and nanoLuc genes in CHO-K1 cells. It counts as cell-based, Chinese hamster. An excerpt: In order to compare the gene expression efficiency between the nanoKAZ gene and the nanoLuc gene in the cultured cell system, an expression vector that was different only in the nanoKAZ gene sequence and the nanoLuc gene sequence was constructed. The expression vector constructed was transfected to CHO-K1 cells. Then, the expression level of luciferase activity was compared by the following procedure. In the nanoLuc gene, the gene sequence described in Hall et al. (2012) ACS Chem. Biol. […] was chemically synthesized and provided for use.
The vector was introduced into CHO-K1 cells by the method described in EXAMPLE 3. After incubation for 23 hours, the culture medium and the cell extract were recovered. The luminescence activity in the culture medium and the cells was measured by the method described in EXAMPLE 4, using coelenterazine as a light-emitting substrate.

B1: nanoKAZ: mutated catalytic 19 kDa domain protein of Oplophorus luciferase encoded by the codon-optimized gene (SEQ ID NO: 1) (protein)
chain: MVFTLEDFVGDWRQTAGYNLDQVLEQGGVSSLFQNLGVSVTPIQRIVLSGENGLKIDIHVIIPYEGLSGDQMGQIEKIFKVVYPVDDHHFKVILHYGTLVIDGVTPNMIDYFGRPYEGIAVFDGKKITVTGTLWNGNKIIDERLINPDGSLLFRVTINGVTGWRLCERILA
For B1, the “luminescence activity relative to nanoLuc” value (with signal peptide, secreted into the culture medium) is listed as “about 1.4 fold”.

B2: nanoKAZ gene: codon-optimized gene for the mutated catalytic 19 kDa domain of Oplophorus luciferase, SEQ ID NO: 2 (nucleic acid)
DNA: ATGGTCTTCACCCTGGAGGACTTCGTCGGCGACTGGAGACAGACCGCCGGCTACAACCTGGACCAGGTCCTGGAGCAGGGCGGCGTCAGCAGCCTGTTCCAGAACCTGGGCGTCAGCGTCACCCCCATCCAGAGAATCGTCCTTAGCGGCGAGAACGGCCTGAAGATCGACATCCACGTCATCATCCCCTACGAGGGCCTGAGCGGCGACCAGATGGGCCAGATCGAGAAGATCTTCAAGGTCGTCTACCCCGTCGACGACCACCACTTCAAGGTCATCCTGCACTACGGCACCCTGGTCATCGACGGCGTCACCCCCAACATGATCGACTACTTCGGTAGACCCTACGAGGGCATCGCCGTCTTCGACGGCAAGAAGATCACCGTCACCGGCACCCTGTGGAACGGCAACAAGATCATCGACGAGAGACTGATCAACCCCGACGGCAGCCTGCTGTTCAGAGTCACCATCAACGGCGTCACCGGCTGGAGACTGTGCGAGAGAATCCTGGCCTAA
modifications: synthetic DNA
Consider B2, for which the “expression relative to the nanoLuc gene” value (without secretory signal, in the culture medium and the cells) is “about 2 fold”.

Source of the values: US10006009B2, “Codon-optimized gene for mutated shrimp luciferase and method for use thereof” (JNC CORPORATION, priority 2013, dated 2018).
